According to US20090175974A1:

Target: TmCad1(EC12-cyto), partial Tenebrio molitor cadherin from extracellular domain 12 through the end of the cytoplasmic domain, expressed on insect cells (Tenebrio molitor)
Assay: cell-based or functional assay

## Cry3Aa protoxin purified from sporulated cultures of Bacillus thuringiensis var. tenebrionis (from UniProt P0A379 1-644)
  cytotoxicity (propidium iodide staining of GFP-positive transfected Hi5 cells, flow cytometry): 25%
  cytotoxicity (propidium iodide staining of GFP-positive transfected S2 cells, flow cytometry): 40%
